Columns and labels:
[1] = target: the molecule itself; assay: SEC; RitRFL wild-type and mutants; Agilent 1220 HPLC, BioBasic SEC-300A column, 50 mM TRIS pH 8.0, 150 mM NaCl, 10 mM DTT; proteins pre-treated with 10 mM DTT; 0.5 ml/min, ambient temperature
RitR FL L90A = RitR FL L90A (Streptococcus pneumoniae R800, UniProt A0ACD7PPZ9 1-229, L90A); assay: EMSA; 20 mM HEPES pH 7.2, 5 mM MgCl2, 1 mM CaCl2, 0.1 mM EDTA, 10 mM DTT, 10% glycerol, 0.5 uM DNA, 800 ng poly(dI-dC) in 20 ul, room temperature 10 min; 4% native TAE PAGE; conditions: protein: recombinant; tags: His6-SUMO removed by ULP1; chain copies: 2; label: 5' HEX on strand 1; blunt
RitR FL L86A = RitR FL L86A (Streptococcus pneumoniae R800, UniProt A0ACD7PPZ9 1-229, L86A); assay: as above; conditions: protein: recombinant; tags: His6-SUMO removed by ULP1; chain copies: 2; label: 5' HEX on strand 1; blunt
RitR FL F96G = RitR FL F96G (Streptococcus pneumoniae R800, UniProt A0ACD7PPZ9 1-229, F96G); assay: as above; conditions: protein: recombinant; tags: His6-SUMO removed by ULP1; chain copies: 2; label: 5' HEX on strand 1; blunt
RitR FL L86A/V93A = RitR FL L86A/V93A (Streptococcus pneumoniae R800, UniProt A0ACD7PPZ9 1-229, L86A;V93A); assay: as above; conditions: protein: recombinant; tags: His6-SUMO removed by ULP1; chain copies: 2; label: 5' HEX on strand 1; blunt
RitR FL wild-type = RitR FL wild-type (Streptococcus pneumoniae R800, UniProt A0ACD7PPZ9 1-229); assay: EMSA; up to 6.6 uM protein; 20 mM HEPES pH 7.2, 5 mM MgCl2, 1 mM CaCl2, 0.1 mM EDTA, 10 mM DTT, 10% glycerol, 0.5 uM DNA, 800 ng poly(dI-dC) in 20 ul, room temperature 10 min; 4% native TAE PAGE; conditions: protein: recombinant; tags: His6-SUMO removed by ULP1; chain copies: 2; label: 5' HEX on strand 1; blunt
RitR FL Y100A = RitR FL Y100A (Streptococcus pneumoniae R800, UniProt A0ACD7PPZ9 1-229, Y100A); assay: EMSA; binding seen at 0.22 uM protein; 20 mM HEPES pH 7.2, 5 mM MgCl2, 1 mM CaCl2, 0.1 mM EDTA, 10 mM DTT, 10% glycerol, 0.5 uM DNA, 800 ng poly(dI-dC) in 20 ul, room temperature 10 min; 4% native TAE PAGE; conditions: protein: recombinant; tags: His6-SUMO removed by ULP1; chain copies: 2; label: 5' HEX on strand 1; blunt
RitR FL D81A = RitR FL D81A (Streptococcus pneumoniae R800, UniProt A0ACD7PPZ9 1-229, D81A); assay: as above; conditions: protein: recombinant; tags: His6-SUMO removed by ULP1; chain copies: 2; label: 5' HEX on strand 1; blunt
[2] = target: the molecule itself; assay: SEC; purified 15N-labelled RitRALR (ALR domain only) wild-type and Ala mutants; oligomeric state

B1: RitR full-length, Leu86 to Ala Gate mutant (natural protein)
chain: MGKRILLLEKERNLAHFLSLELQKEQYRVDLVEEGQKALSMALQTDYDLILLNVNLGDMMAQDFAEKLSRTKPASVIMILDHWEDAQEELEVVQRFAVSYIYKPVLIENLVARISAIFRGRDFIDQHCSLMKVPRTYRNLRIDVEHHTVYRGEEMIALTRREYDLLATLMGSKKVLTREQLLESVWKYESATETNIVDVYIRYLRSKLDVKGQKSYIKTVRGVGYTMQE
notes: RitR, Streptococcus pneumoniae strain R800, full-length, Gate residue Leu86 changed to Ala; also called RitRFL Leu86 mutant; source: E. coli BL21(DE3) or BL21(DE3)-Star, purified (Ni2+ agarose, ULP1 cleavage, subtractive Ni2+ column); not shown: His6, N-terminal, cleaved; SUMO, N-terminal, cleaved
In the case of B1, the “stoichiometry N” value [1] is reported as 2.

B2: RitR full-length, Leu90 to Ala Gate mutant (natural protein)
chain: MGKRILLLEKERNLAHFLSLELQKEQYRVDLVEEGQKALSMALQTDYDLILLNVNLGDMMAQDFAEKLSRTKPASVIMILDHWEDLQEEAEVVQRFAVSYIYKPVLIENLVARISAIFRGRDFIDQHCSLMKVPRTYRNLRIDVEHHTVYRGEEMIALTRREYDLLATLMGSKKVLTREQLLESVWKYESATETNIVDVYIRYLRSKLDVKGQKSYIKTVRGVGYTMQE
notes: RitR, Streptococcus pneumoniae strain R800, full-length, Gate residue Leu90 changed to Ala; also called RitRFL Leu90 mutant; source: E. coli BL21(DE3) or BL21(DE3)-Star, purified (Ni2+ agarose, ULP1 cleavage, subtractive Ni2+ column); not shown: His6, N-terminal, cleaved; SUMO, N-terminal, cleaved
B2 was tested, and the “stoichiometry N” value [1] was 2.

B3: RitR full-length, Val93 to Ala Gate mutant (natural protein)
chain: MGKRILLLEKERNLAHFLSLELQKEQYRVDLVEEGQKALSMALQTDYDLILLNVNLGDMMAQDFAEKLSRTKPASVIMILDHWEDLQEELEVAQRFAVSYIYKPVLIENLVARISAIFRGRDFIDQHCSLMKVPRTYRNLRIDVEHHTVYRGEEMIALTRREYDLLATLMGSKKVLTREQLLESVWKYESATETNIVDVYIRYLRSKLDVKGQKSYIKTVRGVGYTMQE
notes: RitR, Streptococcus pneumoniae strain R800, full-length, Ala substitution of Gate residue Val93; also called RitRFL Val93 mutant; source: E. coli BL21(DE3) or BL21(DE3)-Star, purified (Ni2+ agarose, ULP1 cleavage, subtractive Ni2+ column); not shown: His6, N-terminal, cleaved; SUMO, N-terminal, cleaved
With B3 the “stoichiometry N” value [1] was 2.

B4: RitR full-length, Leu86/Val93 double mutant (natural protein)
chain: MGKRILLLEKERNLAHFLSLELQKEQYRVDLVEEGQKALSMALQTDYDLILLNVNLGDMMAQDFAEKLSRTKPASVIMILDHWEDAQEELEVAQRFAVSYIYKPVLIENLVARISAIFRGRDFIDQHCSLMKVPRTYRNLRIDVEHHTVYRGEEMIALTRREYDLLATLMGSKKVLTREQLLESVWKYESATETNIVDVYIRYLRSKLDVKGQKSYIKTVRGVGYTMQE
notes: RitR, Streptococcus pneumoniae strain R800, full-length, Val93 mutant combined with a Leu86 mutation (Ala); also called RitRFL Leu86/Val93 double mutant; source: E. coli BL21(DE3) or BL21(DE3)-Star, purified (Ni2+ agarose, ULP1 cleavage, subtractive Ni2+ column); not shown: His6, N-terminal, cleaved; SUMO, N-terminal, cleaved
In the case of B4, the “stoichiometry N” value [1] is reported as 2.

B5: BS2 33-mer (dsDNA)
DNA 1: ATTTTATTGACAGATTAGAAAAATAATGTTACA
DNA 2: TGTAACATTATTTTTCTAATCTGTCAATAAAAT
B5: binds (RitR FL L90A); binds (RitR FL L86A); no binding (RitR FL F96G). B5: binds (RitR FL L86A/V93A); no binding (RitR FL wild-type); binds (RitR FL Y100A). B5: binds (RitR FL D81A).

B6: RitR ALR (REC) receiver domain, Leu86 to Ala mutant (domain or fragment)
chain: MGKRILLLEKERNLAHFLSLELQKEQYRVDLVEEGQKALSMALQTDYDLILLNVNLGDMMAQDFAEKLSRTKPASVIMILDHWEDAQEELEVVQRFAVSYIYKPVLIENLVARISAIFRGRDFIG
notes: RitR, Streptococcus pneumoniae strain R800, ALR (REC) domain, amino acids Met1-Ile124, Ala substitution of Leu86; extra C-terminal glycine residue; PDB 4LZL is the wild-type parent of the same limits; also called RitRALR Leu86 mutant; source: E. coli BL21 DE3, 15N-labelled in M9 medium, purified (Ni-NTA, ULP1 cleavage, subtractive Ni-NTA); not shown: His6, N-terminal, cleaved; SUMO, N-terminal, …
With B6 the “stoichiometry N” value [2] was 2.

B7: RitR ALR (REC) receiver domain, Leu90 to Ala mutant (domain or fragment)
chain: MGKRILLLEKERNLAHFLSLELQKEQYRVDLVEEGQKALSMALQTDYDLILLNVNLGDMMAQDFAEKLSRTKPASVIMILDHWEDLQEEAEVVQRFAVSYIYKPVLIENLVARISAIFRGRDFIG
notes: RitR, Streptococcus pneumoniae strain R800, ALR (REC) domain, amino acids Met1-Ile124, Leu90 changed to Ala; extra C-terminal glycine residue; PDB 4LZL is the wild-type parent of the same limits; also called RitRALR Leu90>Ala mutant; Leu90 mutant; source: E. coli BL21 DE3, 15N-labelled in M9 medium, purified (Ni-NTA, ULP1 cleavage, subtractive Ni-NTA); not shown: His6, N-terminal, cleaved; SUMO, …
B7 was tested, and the “stoichiometry N” value [2] was 2.
